Laboratory results reported in publication PMC12685063.

Target: Shigella flexneri LptDE complex (SfLptDE), His6 tag on LptE (Shigella flexneri)
Experiment: SEC

receptor binding protein (RBP) of the small siphophage Oekolampad (bas018) (natural protein)
percent RBP (Oeko) binding (complex formation after 48 h, band densitometry against LptE): 15 to 35%
